Measurements published in US20240400693A1 (Chugai, published 2024).
Positions count from the first letter of the chain named. Where two headings read alike, the source gives them in different places.

T1: HLA-DQ5.1 on Ba/F3 cells (human, limits assumed)
T1 construct: whole, on cells; also called Ba/F3-HLA-DQ5.1
T1 MHC II alpha: not shown
T1 MHC II beta: not shown

T2: HLA-DQ6.3 on Ba/F3 cells (human, UniProt P01920 33-230, limits assumed)
T2 construct: whole, on cells; also called Ba/F3-HLA-DQ6.3
T2 MHC II alpha: not shown
T2 MHC II beta: not shown

B1: DQN0344H1013/L0620//DQN0385H1521/L0605-F6.v2 (bispecific antibody)
heavy 1: QVQLVESGGGVVQPGRSLRLSCAASGFTFSSAYWMVWVRQAPGQGLEWMGAVYGGSDTTYYAKWTEGRFTISRDTSKNTLYLQMNSLRAEDTAVYYCAREPLNYYYYGELNVWGQGTLVTVSSASTKGPSVFPLAPSSKSTSGGTAALGCLVKDYFPEPVTVSWNSGALTSGVHTFPAVLKSSGLYSLSSVVTVPSSSLGTQTYICNVNHKPSNTKVDKRVEPKSCDKTHTCPPCPAPELRRGPSVFLFPPKPKDTLMISRTPEVTCVVVDVSHEDPEVKFNWYVDGVEVHNAKTKPREEQYNSTYRVVSVLTVLHQDWLNGKEYKCKVSNKALPAPIEKTISKAKGQPREPQVYTLPPSREEMTKNQVSLTCLVKGFYPSDIAVEWESNGQPENNYKTTPPVLDSDGSFFLYSKLTVDKSRWQEGNVFSCSVLHEALHAHYTREELSLSP
light 1: DIQMTQSPSSLSASVGDRVTITCQATENIYSGLAWYQQKPGKAPKLLIYYVSTLAYGIPARFSGSGSGTDFTLTISSLEPEDFAVYYCQTYEDVSAVTFGQGTKVEIKRTVAAPSVFIFPPSDEQLKSGTAEVVCLLNNFYPREAKVQWKVDNALQSGNSEESVTEQDSKDSTYSLSSTLTLSKADYEKHKVYACEVTHQGLSSPVTKSFNRGEC
heavy 2: QVQLVESGGGVVQPGRSLRLSCAASGFTFESWYFMSWVRQAPGKGLEWVASIDTGSGSIDYAEWVEGRFTISRDNSKNTLYLQMNSLRAEDTAVYYCARDIGIDYNFWGPGTLVTVSSASTKGPSVFPLAPSSKSTSGGTAALGCLVEDYFPEPVTVSWNSGALTSGVHTFPAVLESSGLYSLSSVVTVPSSSLGTKTYICNVNHKPSNTKVDKRVEPKSCDKTHTCPPCPAPELRRGPSVFLFPPKPKDTLMISRTPEVTCVVVDVSHEDPEVKFNWYVDGVEVHNAKTKPREEQYNSTYRVVSVLTVLHQDWLNGKEYKCKVSNKALPAPIEKTISKAKGQPREPQVYTLPPSRKEMTKNQVSLTCLVKGFYPSDIAVEWESNGQPENNYKTTPPVLDSDGSFFLYSKLTVDKSRWQQGNVFSCSVLHEALHAHYTRKELSLSP
light 2: DIQMTQSPSSLSASVGDRVTITCQTTQSISSYLNWYQQKPGQPPKLLIYYASTKAEGIPARFSGSGSGTDFTLTISSLEPEDFAVYYCHYGISKVSFGQGTKVEIKRTVAAPSVFIFPPSDEQLKSGTAKVVCLLNNFYPREAKVQWKVDNALQSGNSKESVTEQDSKDSTYSLSSTLTLSKADYEKHKVYACEVTHQGLSSPVTKSFNRGEC
B2: DQN0344H0976/L0591//DQN0385H1255/L0605-F6.v2 (bispecific antibody)
heavy 1: B1 heavy 1 with R16G, V112L
light 1: B1 light 1 with N28E, A55Y, Y56E
heavy 2: B1 heavy 2 with E30S, S31E, E63G, G67E
light 2: B1 light 2
B3: DQN0344H1013/L0620//DQN0385H1353/L0681-F6 (bispecific antibody)
heavy 1: B1 heavy 1 with V403Y
light 1: B1 light 1
heavy 2: B1 heavy 2 with E30A, S31E, V398Y
light 2: B1 light 2 with S67L

What was measured:
[1] = target: HLA-DQ2.2 on HBBB2.2 cells loaded with 33mer gliadin peptide (human; wheat); assay: cell-based or functional assay
[2] = target: T3, HLA-DQ2.5 on IHW09023 cells loaded with omega1/2 gliadin peptide (human; wheat); assay: cell-based or functional assay
[3] = target: T4, HLA-DQ2.5 on IHW09023 cells loaded with BC hordein peptide (human; barley); assay: cell-based or functional assay
[4] = target: T5, HLA-DQ2.5 on IHW09023 cells loaded with gamma 3 gliadin peptide (human; wheat); assay: cell-based or functional assay
[5] = target: T6, HLA-DQ2.5 on IHW09023 cells loaded with gamma 1 gliadin peptide (human; wheat); assay: cell-based or functional assay
[6] = target: T7, HLA-DQ2.5 on IHW09023 cells loaded with 33mer gliadin peptide (human; wheat); assay: cell-based or functional assay
[7] = target: T8, HLA-DQ2.5 on IHW09023 cells loaded with gamma 4a gliadin peptide (human; wheat); assay: cell-based or functional assay
[8] = target: T9, HLA-DQ2.5 on IHW09023 cells loaded with gamma 2 gliadin peptide (human; wheat); assay: cell-based or functional assay
[9] = target: T10, HLA-DQ2.5 on IHW09023 cells loaded with gamma 4d gliadin peptide (human; wheat); assay: cell-based or functional assay
HLA-DQ5.1 on Ba/F3 cells = target: T1, HLA-DQ5.1 on Ba/F3 cells; assay: FACS, Ba/F3 cells; raw MFI
HLA-DQ6.3 on Ba/F3 cells = target: T2, HLA-DQ6.3 on Ba/F3 cells; assay: FACS, Ba/F3 cells; raw MFI
HLA-DP on Ba/F3 cells = target: T11, HLA-DP on Ba/F3 cells (human, UniProt P20036 29-222; P04440 30-225, limits assumed); assay: FACS, Ba/F3 cells; raw MFI
T11 construct: whole, on cells; also called Ba/F3-HLA-DP
T11 sequence (P20036 29-222 limits assumed, chain 1 of 4, other chains not shown): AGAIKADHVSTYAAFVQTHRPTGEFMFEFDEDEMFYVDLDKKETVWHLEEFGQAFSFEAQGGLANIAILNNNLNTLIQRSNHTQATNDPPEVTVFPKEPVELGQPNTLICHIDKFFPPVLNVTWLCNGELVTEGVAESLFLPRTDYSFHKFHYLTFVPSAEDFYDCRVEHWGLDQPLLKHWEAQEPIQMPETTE
T11 sequence (P04440 30-225 limits assumed, chain 2 of 4, other chains not shown): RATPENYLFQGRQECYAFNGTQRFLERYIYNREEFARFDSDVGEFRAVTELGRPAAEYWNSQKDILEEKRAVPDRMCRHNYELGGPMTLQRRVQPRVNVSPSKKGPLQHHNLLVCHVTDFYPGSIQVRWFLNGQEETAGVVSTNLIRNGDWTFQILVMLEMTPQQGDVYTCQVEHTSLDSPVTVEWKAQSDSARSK

[10] = target: T3, HLA-DQ2.5 on IHW09023 cells loaded with …; assay: cell-based or functional assay; remark: listed apart in the source
[11] = target: T4, HLA-DQ2.5 on IHW09023 cells loaded with …; assay: cell-based or functional assay; remark: listed apart in the source
[12] = target: T5, HLA-DQ2.5 on IHW09023 cells loaded with …; assay: cell-based or functional assay; remark: listed apart in the source
[13] = target: T6, HLA-DQ2.5 on IHW09023 cells loaded with …; assay: cell-based or functional assay; remark: listed apart in the source
[14] = target: T7, HLA-DQ2.5 on IHW09023 cells loaded with …; assay: cell-based or functional assay; remark: listed apart in the source
[15] = target: T8, HLA-DQ2.5 on IHW09023 cells loaded with …; assay: cell-based or functional assay; remark: listed apart in the source
[16] = target: T9, HLA-DQ2.5 on IHW09023 cells loaded with …; assay: cell-based or functional assay; remark: listed apart in the source
[17] = target: T10, HLA-DQ2.5 on IHW09023 cells loaded with …; assay: cell-based or functional assay; remark: listed apart in the source

Binder	IC50 (ng/ml)_HLA-DQ2.2, α1a gliadin TCR, 25 µM 33mer gliadin [1]	IC50 (ng/ml)_HLA-DQ2.2, α2 gliadin TCR, 1 µM 33mer gliadin [1]	IC50 (ng/mL), ω1 gliadin TCR, 25 µM ω1/2 gliadin [2]	IC50 (ng/mL), ω2 gliadin TCR, 250 nM ω1/2 gliadin [2]	IC50 (ng/mL), BC hordein TCR, 250 nM BC hordein [3]	IC50 (ng/mL), γ3 gliadin TCR, 100 µM γ3 gliadin [4]	IC50 (ng/mL), γ1 gliadin TCR, 250 nM γ1 gliadin [5]	IC50 (ng/mL), α1a gliadin TCR, 250 nM 33mer gliadin [6]	IC50 (ng/mL), α1b gliadin TCR, 250 nM 33mer gliadin [6]	IC50 (ng/mL), α2 gliadin TCR, 250 nM 33mer gliadin [6]	IC50 (ng/mL), γ4a gliadin TCR, 25 µM γ4a gliadin [7]	IC50 (ng/mL), γ2 gliadin TCR, 250 nM γ2 gliadin [8]	IC50 (ng/mL), γ4d gliadin TCR, 100 µM γ4d gliadin [9]	other results
B1	1.16 ng/mL	6.51 ng/mL	1.96 ng/mL	0.2 ng/mL	11.4 ng/mL	1.21 ng/mL	1.9 ng/mL	0.6 ng/mL	1.81 ng/mL	0.33 ng/mL	1250 ng/mL	785 ng/mL	9.23 ng/mL	
B2	1.72 ng/mL	9.48 ng/mL	1.62 ng/mL	0.18 ng/mL	9.52 ng/mL	1.55 ng/mL	1.62 ng/mL	0.46 ng/mL	1.33 ng/mL	0.29 ng/mL	636 ng/mL	252 ng/mL	8.69 ng/mL	
B3														binding result (HLA-DQ5.1 on Ba/F3 cells): no binding (tested: 0.05 micro g/mL); binding result (HLA-DQ6.3 on Ba/F3 cells): no binding (tested: 0.05 micro g/mL); binding result (HLA-DP on Ba/F3 cells): no binding (tested: 0.05 micro g/mL); IC50 (ng/mL), ω1 gliadin TCR, 25 µM ω1/2 gliadin [10]: 1.17 ng/mL; IC50 (ng/mL), ω2 gliadin TCR, 250 nM ω1/2 gliadin [10]: 0.17 ng/mL; IC50 (ng/mL), BC hordein TCR, 250 nM BC hordein [11]: 8.78 ng/mL; IC50 (ng/mL), γ3 gliadin TCR, 100 µM γ3 gliadin [12]: 2.29 ng/mL; IC50 (ng/mL), γ1 gliadin TCR, 250 nM γ1 gliadin [13]: 0.56 ng/mL; IC50 (ng/mL), α1a gliadin TCR, 250 nM 33mer gliadin [14]: 0.29 ng/mL; IC50 (ng/mL), α1b gliadin TCR, 250 nM 33mer gliadin [14]: 1.13 ng/mL; IC50 (ng/mL), α2 gliadin TCR, 250 nM 33mer gliadin [14]: 0.34 ng/mL; IC50 (ng/mL), γ4a gliadin TCR, 25 µM γ4a gliadin [15]: 1250 ng/mL; IC50 (ng/mL), γ2 gliadin TCR, 250 nM γ2 gliadin [16]: 100 ng/mL; IC50 (ng/mL), γ4d gliadin TCR, 100 µM γ4d gliadin [17]: 2.06 ng/mL
